Experimental data reported in the nanobody polyreactivity screen of Harvey et al. (2022).

Experiment: yeast display, Sf9 membrane polyspecificity reagent, FACS + sequencing; frameworks hold sequencing errors
Summary of the method: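 A synthetic nanobody library was expressed on Saccharomyces cerevisiae BJ5465 by galactose induction for 36–48 hours. The library was stained for 1 hour at 4 °C with 10% biotinylated, detergent-solubilized Sf9 membrane reagent and enriched with streptavidin microbeads before FACS. Low and high (top ~1%) gates were set on anti-HA fluorescence for expression and streptavidin fluorescence for reagent binding, and each polyreactivity label reflects the gate of origin.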

Question: For “QVQLVESGGGLVQAGGSLRLRCAPSGSIFSAYAMGWYRQAPGKVREVVAGISKSGARTYYADSVKGRFTLSRDNAKNTVYLQMNRLKPEDTAVYYCAAVDYYLYYYWGQGTQVTVSS”, which “polyreactivity (PSR sort gate)” value is on record?
Answer: high polyreactivity

Question: With “QVQLVESGGGLVQAGGSLRLRCGASGFIFEHYAMGWYRPAPAKERDFVAAISGSGGNKYYADSVKGRFTISRDNAKNTVYLQMNSLKPEDTAVYSCNKVDGTTLDDHYMDYWGQGTQVTVSS” as the sequence, how does the “polyreactivity (PSR sort gate)” value read?
Answer: low polyreactivity

Question: For “QVQLVESGGGLVQAGGSLRLRGAAAGYNFLRYAIGWYRQAPGTERELVAAITNTGNTNYADSVKGRFTISRDNAKNTVYLQMNSLKPEDTAVYSCAAEYYWYSWKNRYKEYDYWGQGTQVTLSS”, which “polyreactivity (PSR sort gate)” value is on record?
Answer: low polyreactivity

Question: With “QVQLVESGGGLVQAGGSLRLRGAASGFTFLYYAMGWYRQAPGKERELVAAITWSGDSTYYADSEKGRFTISRDYAMNTVYLQMNSLKPEDTAVYYCATGGVTFGSVVRGVDGDYWGQGTQVTVSS” as the sequence, how does the “polyreactivity (PSR sort gate)” value read?
Answer: low polyreactivity

Question: For “QVQLVESGGGLVQAGGSLRLRGAASGSTFYRYAMGWSRQAPGKERELVAAISWSAGRTYYADSVKGRFTISRYTAKNTVYLQMNSLKPEDTAVYYCAARGWYKSDYWGQGTQVTVSS”, which “polyreactivity (PSR sort gate)” value is on record?
Answer: low polyreactivity

Question: Which “polyreactivity (PSR sort gate)” value does the source give for “QVQLVESGGGLVQAGGSLRLSCAAAGRIFSYNAMGWYRQAPGKERELVAAISSGGSTYYADSVKGRFTISRDNAKNTFYLQMNSLKPEDTAVYYCAADRRYYSDMYYWGQGTQVTVSS” here?
Answer: low polyreactivity

Question: Which “polyreactivity (PSR sort gate)” value does the source give for “QVQLVESGGGLVQAGGSLRLSCAAAGRIFVQYDMGWYRQAAGKERELVAAIIDSGDITYYADSVKGRYTSSRDNAKNTVYLQMNSLKPEDTAVYDCAASAAYYGFYKSVTYDYWGQGTQVTVSS” here?
Answer: low polyreactivity

Question: With “QVQLVESGGGLVQAGGSLRLSCAAAGRTIRRIAMGWYRQAPGKERELVAAISKSGGRTYYADSVKGRFTISRDKAKKTVYLQMNSMKPEDTAVYYCGAYDTVYNSGDYDYWGQGTQVTVSS” as the sequence, how does the “polyreactivity (PSR sort gate)” value read?
Answer: high polyreactivity

Question: Which “polyreactivity (PSR sort gate)” value does the source give for “QVQLVESGGGLVQAGGSLRLSCAAAGSTFSSYAMGWYRQAPGKERELVAAITSSGGSTYYADSVKGRFSISRDNAKNTVYIQKNSLKPEDTAVYYCAAADVIFWLYYYWGQGTQVTVSS” here?
Answer: low polyreactivity

Question: Which “polyreactivity (PSR sort gate)” value does the source give for “QVQLVESGGGLVQAGGSLRLSCAAARYAMGWYRPAPGKERELVAAISKSGGSTYYADSVKGRFTISRDNAKNTVYLQMNSLIPEDTAVYYCAARGHAGRGEYYYWGQGTQVTVSS” here?
Answer: high polyreactivity

Question: For “QVQLVESGGGLVQAGGSLRLSCAACGFIFRRYAMGWYRQAPGKERELVAAISSGGNTNYADSVKGRFTISRDNAKNTVYLQMNSLKPEDTAVYYCAVLGWYYYKYDYWGQGTQVNVSS”, which “polyreactivity (PSR sort gate)” value is on record?
Answer: high polyreactivity

Question: Which “polyreactivity (PSR sort gate)” value does the source give for “QVQLVESGGGLVQAGGSLRLSCAACGFIFSSNAMGWYTPAPGNERELVAAITGGGGRTRYADSVKGRFTISRDNAKNSVYLQMNSLKPEDTAVYYCNTVYYVYYRSYSYKGDYWGQGTQVTVSS” here?
Answer: high polyreactivity

Question: Which “polyreactivity (PSR sort gate)” value does the source give for “QVQLVESGGGLVQAGGSLRLSCAACGFIFYKNAMGWYRQAPGKERELFAAISGGGGSTSYADSVKGRFTISRDNAKNTVYLQMNSLKPEDTAVYYCATYSFRRTGWRYDYWGQGTQVTVSS” here?
Answer: high polyreactivity

Question: For “QVQLVESGGGLVQAGGSLRLSCAACGFTFTAYAMVWYRQAPGKERELVAAISYRGGRTNYAYSVKGRFTISRDNAKNTVYLQMNSLKPEDTAVYYCAARPRISTREMDYWRQGTQVTVSS”, which “polyreactivity (PSR sort gate)” value is on record?
Answer: high polyreactivity

Question: For “QVQLVESGGGLVQAGGSLRLSCAACGGTFGNYAMGWYRQAPGKDRELVAAISTRGGSTYYADSVKGRFTISRDNAKNTVYLQMNSLKPEDTAVYYCNARIKRPRGVYGGDYWGQGTQVTVSS”, which “polyreactivity (PSR sort gate)” value is on record?
Answer: high polyreactivity

Question: With “QVQLVESGGGLVQAGGSLRLSCAACGITWGYAMGWYRQAPGKERELVAVIRWSGTSTSYADSVKGRYTISRAKAKNTVYLQMNSLKPEDTAVYYCNAAWYDQYGDSDGDDYWGQGTQVTVSS” as the sequence, how does the “polyreactivity (PSR sort gate)” value read?
Answer: low polyreactivity

Question: With “QVQLVESGGGLVQAGGSLRLSCAACGRIFTYNAMGWYRQAPGKERELVAAISSSGGRTYYADSVKGRFTISRDNAKNTLYLEMNSLKPEDTAVYYCARAYREGGRTQRGDYWGQGTQVTVSS” as the sequence, how does the “polyreactivity (PSR sort gate)” value read?
Answer: high polyreactivity

Question: For “QVQLVESGGGLVQAGGSLRLSCAACGRIFVRNAMGWYRQAPGKERELVADITNGGSTNYADSVKGRFTISRDNAKNTVYLQMNSLKPEDTAVYYCGAVYYSTDYYFWYDYWGQGTQVTVSS”, which “polyreactivity (PSR sort gate)” value is on record?
Answer: low polyreactivity

Question: With “QVQLVESGGGLVQAGGSLRLSCAACGRTSSIYAMGWYRQAPGKERELVATITGGAVSTSYADSVKGRFTISRDNAKYTVYLQMNSLKPEDSAVYYCAADHWRYRSRPVNYWRQGTQVTVSS” as the sequence, how does the “polyreactivity (PSR sort gate)” value read?
Answer: high polyreactivity

Question: Which “polyreactivity (PSR sort gate)” value does the source give for “QVQLVESGGGLVQAGGSLRLSCAACGSIFKGNAMGWYRQAPGKERELVARISSGGSTYYADSVKGRFTISRDNAKNTVYLQMNSLKPEDTAVYYCAARVYTSYIRQYTYSYYYWGQGTQVTVSS” here?
Answer: high polyreactivity

Question: Which “polyreactivity (PSR sort gate)” value does the source give for “QVQLVESGGGLVQAGGSLRLSCAACGSILKQYAMGWYRQAPGKERVLDAAITWRGTGTYYADSVKGRFTISRDNAKKTVYLLMNSLQAEDTAVSYCAAKWYRRTYGYLPYTGIVNYDYWGQGTQLTVSS” here?
Answer: high polyreactivity

Question: Which “polyreactivity (PSR sort gate)” value does the source give for “QVQLVESGGGLVQAGGSLRLSCAACGSTFRYYAMGWYRQAPGKERELVAAITYSGGSTYYADSVKGRFTISRDNAKNTVYLQMNSLKPEDTAVYYCNADFLPRWYPPPYDYWGQGTQVTVSS” here?
Answer: high polyreactivity

Question: With “QVQLVESGGGLVQAGGSLRLSCAACGSTFYVNTMGWYRQAPGKERELVAAITDSGVGTYADSVKGRFTISRDNAKNTVYLQMNSLKPEDTAVYYCNADGRYYDDETYDYWGQGTQVTVSS” as the sequence, how does the “polyreactivity (PSR sort gate)” value read?
Answer: low polyreactivity

Question: Which “polyreactivity (PSR sort gate)” value does the source give for “QVQLVESGGGLVQAGGSLRLSCAACVRTFSGYAMGWYRPAPGKERELVAAIRWSGGSTYYADSVKGRFTISRDNAKNTVYLQMNSLKPEDTAVYYCATRDYYYRYGYWGQGTQVTVSS” here?
Answer: high polyreactivity

Question: Which “polyreactivity (PSR sort gate)” value does the source give for “QVQLVESGGGLVQAGGSLRLSCAAFGFTFNSYAMGWNRQAPGKERELVAGITSSGGGTYYADSVKGRFTISRDNAKNTVYLQMNSLKPEDTAVYYCNTYSYLFSRYGFWGQGTQVTVSS” here?
Answer: high polyreactivity

Question: With “QVQLVESGGGLVQAGGSLRLSCAAFGSIFGYNAMGSYRQAPGKEREFVAAISWSGGRTYYADSVKGRFTISRDNAKNTVYLQMNSLKPEDTAVYYCAAPSRPAPRFDYWGQGTQVTVSS” as the sequence, how does the “polyreactivity (PSR sort gate)” value read?
Answer: low polyreactivity

Question: For “QVQLVESGGGLVQAGGSLRLSCAAPGSTIRANAMGWYRQAPGKEMELVAAITKNGGSTYYADSVKGRFTISRDNAKNTVYLQMNSLKPEDTAVYYCAARRSSRRPPYYYWGQGTQVTVSS”, which “polyreactivity (PSR sort gate)” value is on record?
Answer: high polyreactivity

Question: For “QVQLVESGGGLVQAGGSLRLSCAASAFILQRNAMGWYRQAHGKERELVAAISSRGGSTYYADSVKGRFTISRDNAKNTVYLQMNSLKPEDTAVYYCNRRSRAHGYGSQYDYWGQGTQVTVSS”, which “polyreactivity (PSR sort gate)” value is on record?
Answer: low polyreactivity

Question: With “QVQLVESGGGLVQAGGSLRLSCAASAIIFDGNTMGWYRQAPGKEREFVAAISRNGGTTSYADSVKGRFTISRDNAKNTVYLQMNSLKPEDTAVYYCAADVETFWGWRYEYWGQGTQVTVSS” as the sequence, how does the “polyreactivity (PSR sort gate)” value read?
Answer: low polyreactivity

Question: For “QVQLVESGGGLVQAGGSLRLSCAASAIIFYKNAMGWYRQAPGKERELVAAITRGGSTNYADSVKGRFTISRDNAKNTVYLQMNSLKPEDTAVYYCDKRWFYTRYPTYDYWGQGTQVTVSS”, which “polyreactivity (PSR sort gate)” value is on record?
Answer: low polyreactivity

Question: Which “polyreactivity (PSR sort gate)” value does the source give for “QVQLVESGGGLVQAGGSLRLSCAASARIFFTYVMGWYRQAHGKEREFVAAITFSDGTTYYADSVKGRFTISRDNAKNTVYLQMNSLKPEDTAVYYCNTDSFYGFVYPWTISSEVDYWGQGTQVTVSS” here?
Answer: low polyreactivity

Question: Which “polyreactivity (PSR sort gate)” value does the source give for “QVQLVESGGGLVQAGGSLRLSCAASARIFPWNAMGWYRQAPGKERELVAAITSGGGTTYYADSVKGRFTISRDNAKNTVYLQMNSLKPEDTAVYYCATPWEGSSTADYRISVYYWGQGTQVTVSS” here?
Answer: low polyreactivity

Question: With “QVQLVESGGGLVQAGGSLRLSCAASARIFYAYTMGWYRQAPGKERELVAAISGSGSTYYADSVKGRFTISRDNAMNTFFLQMNSLKPEDTAVYYCAADVTGGRKYDYWGQGTEVTVSS” as the sequence, how does the “polyreactivity (PSR sort gate)” value read?
Answer: low polyreactivity

Question: For “QVQLVESGGGLVQAGGSLRLSCAASARTFATYAMGWYRHAPGKEWELVAGITSGGNTYYADSVKGRFTISRDNAKNTVYLQMNSLKPVDTAVYYCAADRVYLGLFRYEYWGQGTQVTVSS”, which “polyreactivity (PSR sort gate)” value is on record?
Answer: high polyreactivity

Question: Which “polyreactivity (PSR sort gate)” value does the source give for “QVQLVESGGGLVQAGGSLRLSCAASARTFYYNGMGWYIQAPGKERELVAASSGGGSSTSYADSVKGRFTISRDNAKNTVYLQMNSLKPEDTAVYYCAAKYGALRYYKMYYWGQGTQVTVSS” here?
Answer: low polyreactivity

Question: With “QVQLVESGGGLVQAGGSLRLSCAASASIFDIYGMGWYRKAPGKERELVASISGGAGSTNYADSVKGRFTISRDNAKNTVYLQMNSLKPEDTAVYYCAADSADPTEYDYWGQGTQVTVSS” as the sequence, how does the “polyreactivity (PSR sort gate)” value read?
Answer: low polyreactivity

Question: For “QVQLVESGGGLVQAGGSLRLSCAASASIFPDNTMGWYRQAPGKERELVAAIDGRGGTTYYADSVKGRFTISRDNAKNTVYLQMNSLKPEDTAVYYCARDIGHSARYDYWGQGTQVTVSS”, which “polyreactivity (PSR sort gate)” value is on record?
Answer: low polyreactivity

Question: Which “polyreactivity (PSR sort gate)” value does the source give for “QVQLVESGGGLVQAGGSLRLSCAASASIFWYNSMGWYRQAPGKEREFVDSISGSGTSTYADSVKGRFTISRDNAKNTVYLQMNSLKPEDTAVYYCIAYYEYSWLYSNWLYGKYDYWGQGTQVTVSS” here?
Answer: low polyreactivity

Question: With “QVQLVESGGGLVQAGGSLRLSCAASASIISYYAKGWYRQAPGKERELVAAISGSGSRTYYADSVKGRFTISRDNAKNTVYLQMNSLKPEDTAVYYCAARSLYRGFGYWGQGTQVTVSS” as the sequence, how does the “polyreactivity (PSR sort gate)” value read?
Answer: high polyreactivity

Question: With “QVQLVESGGGLVQAGGSLRLSCAASASTFILSAMGWYRQAPGNERELVAAISSDGSTYYADSVKGRFTISRDNAKNTVYLQMNSLKPEDTAVYYCAAYGYDADTGYDYWGQGTQVTVSS” as the sequence, how does the “polyreactivity (PSR sort gate)” value read?
Answer: low polyreactivity

Question: Which “polyreactivity (PSR sort gate)” value does the source give for “QVQLVESGGGLVQAGGSLRLSCAASASTFVYYAMGWYRQAPGKERELVAAISRSGTSTYYADSVKGRFTISRDNAKNTVYLQMNSLKPEDTAVFYCNARKKQGFDYWGQGTQVTVSS” here?
Answer: high polyreactivity

Question: With “QVQLVESGGGLVQAGGSLRLSCAASASTFWRYAMGWYRQAPGKERELVAAISWNGGSTYYADSVKGRFTISRDNAKNTVYLQMNSLKPEDTAVYYCARGYSWSVGYPRVQDMDYWGQGTQVTVSS” as the sequence, how does the “polyreactivity (PSR sort gate)” value read?
Answer: high polyreactivity

Question: Which “polyreactivity (PSR sort gate)” value does the source give for “QVQLVESGGGLVQAGGSLRLSCAASEFTFLLYAMGWYRQAPGKERELVAAISRTGGSTYYADSVKGRFTISRDNAKKTVYLQMNSLNPEDTAVYYCNAAISRAWVSYYGSSSRYDYWGQGTQVTVSS” here?
Answer: low polyreactivity
